Data from patent US20180186877A1, “METHOD FOR SUPPRESSING BLOOD COAGULATION REACTION FOR WHICH LOX-1 IS RESPONSIBLE” (NATIONAL CEREBRAL AND CARDIOVASCULAR CENTER, priority 2013, published 2018).

Target: LOX-1 (immobilised on the ELISA plate in Examples 3 to 6; recombinant LOX-1 protein immobilised in the test tube in Example 8) (UniProt P78380)
Assay: ELISA, LOX-1 immobilised at 5 ug/mL, recombinant A2 domain 0-10 ug/mL, anti-V5 detection

Sequence of Recombinant A2 domain of the H chain of FV (NM000130.4, aa 317-656, V5-6xHis; Igk secretion signal) (P12259 345-684 limits assumed, form in doubt): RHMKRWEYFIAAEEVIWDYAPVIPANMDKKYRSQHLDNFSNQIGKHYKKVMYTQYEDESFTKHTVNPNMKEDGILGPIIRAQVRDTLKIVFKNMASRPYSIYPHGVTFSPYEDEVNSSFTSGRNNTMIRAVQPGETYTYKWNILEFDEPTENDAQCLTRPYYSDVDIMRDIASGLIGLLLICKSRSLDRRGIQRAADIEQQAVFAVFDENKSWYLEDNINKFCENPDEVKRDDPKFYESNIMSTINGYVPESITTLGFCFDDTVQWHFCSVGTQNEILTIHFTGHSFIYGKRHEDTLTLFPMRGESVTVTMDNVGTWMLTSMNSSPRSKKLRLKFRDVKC

- EC50 (read off the curve): 1 µg/mL
Substance: Recombinant A2 domain of the H chain of FV (NM000130.4, aa 317-656, V5-6xHis; Igk secretion signal) (from UniProt P12259 345-684)
